From US20210388107A1

What was measured:
[1] = molecular target: human SIRPαBIT expressed on cells (human) (UniProt P78324); assay: flow cytometry, U937 cells
[2] = molecular target: cynomolgus monkey SIRPα expressed on ExpiCHO-S cells (cynomolgus monkey); assay: flow cytometry, ExpiCHO-S cells
[3] = molecular target: human SIRPα1 expressed on cells (human) (UniProt P78324); assay: flow cytometry, ExpiCHO-S cells
[4] = molecular target: human SIRPαBIT expressed on cells (human) (UniProt P78324); assay: flow cytometry, ExpiCHO-S cells
[5] = molecular target: human SIRPβ1v1, AVI-tagged, biotinylated, monomeric form (human) (UniProt O00241); assay: SPR, captured monomeric antigen
[6] = molecular target: human SIRPβ1v2, AVI-tagged, biotinylated, monomeric form (human) (UniProt Q5TFQ8); assay: SPR, captured monomeric antigen
[7] = molecular target: cynomolgus monkey SIRPα, extracellular domain, Avi-FXa-Fc tag (cynomolgus monkey); assay: SPR, captured biotinylated antigen
[8] = molecular target: human SIRPα1 extracellular domain 1-370, Avi-FXa-Fc tag (human); assay: SPR, captured biotinylated antigen
[9] = molecular target: human SIRPαBIT, extracellular domain 1-370, Avi-FXa-Fc tag (human); assay: SPR, captured biotinylated antigen
[10] = molecular target: human SIRPβ1v1, extracellular domain, Avi-FXa-Fc tag (human); assay: SPR, captured biotinylated antigen
[11] = molecular target: human SIRPβ1v2, extracellular domain, Avi-FXa-Fc tag (human); assay: SPR, captured biotinylated antigen
[12] = molecular target: human SIRPγ, extracellular domain, Avi-FXa-Fc tag (human); assay: SPR, captured biotinylated antigen
Chain of human SIRPγ, extracellular domain, Avi-FXa-Fc tag (human) (chain, as listed by the source limits assumed): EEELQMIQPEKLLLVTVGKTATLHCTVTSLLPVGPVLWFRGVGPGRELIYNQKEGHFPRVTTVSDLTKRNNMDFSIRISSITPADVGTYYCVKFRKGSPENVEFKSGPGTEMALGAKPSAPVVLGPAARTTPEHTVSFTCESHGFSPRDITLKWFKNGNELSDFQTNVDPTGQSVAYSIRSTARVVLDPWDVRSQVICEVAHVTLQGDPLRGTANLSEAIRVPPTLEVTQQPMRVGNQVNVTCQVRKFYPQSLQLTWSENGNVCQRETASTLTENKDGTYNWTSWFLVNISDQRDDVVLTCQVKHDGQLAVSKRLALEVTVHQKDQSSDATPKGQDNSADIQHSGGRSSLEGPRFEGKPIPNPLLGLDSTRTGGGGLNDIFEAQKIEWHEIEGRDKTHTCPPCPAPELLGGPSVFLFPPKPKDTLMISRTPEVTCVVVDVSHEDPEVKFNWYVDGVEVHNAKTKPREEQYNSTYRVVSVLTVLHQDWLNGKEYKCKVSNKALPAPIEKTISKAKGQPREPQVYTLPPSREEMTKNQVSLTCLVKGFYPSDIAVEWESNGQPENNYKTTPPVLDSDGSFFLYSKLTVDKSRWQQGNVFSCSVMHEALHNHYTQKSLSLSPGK

Chain of human SIRPαBIT expressed on cells (human) (P78324 31-504 limits assumed): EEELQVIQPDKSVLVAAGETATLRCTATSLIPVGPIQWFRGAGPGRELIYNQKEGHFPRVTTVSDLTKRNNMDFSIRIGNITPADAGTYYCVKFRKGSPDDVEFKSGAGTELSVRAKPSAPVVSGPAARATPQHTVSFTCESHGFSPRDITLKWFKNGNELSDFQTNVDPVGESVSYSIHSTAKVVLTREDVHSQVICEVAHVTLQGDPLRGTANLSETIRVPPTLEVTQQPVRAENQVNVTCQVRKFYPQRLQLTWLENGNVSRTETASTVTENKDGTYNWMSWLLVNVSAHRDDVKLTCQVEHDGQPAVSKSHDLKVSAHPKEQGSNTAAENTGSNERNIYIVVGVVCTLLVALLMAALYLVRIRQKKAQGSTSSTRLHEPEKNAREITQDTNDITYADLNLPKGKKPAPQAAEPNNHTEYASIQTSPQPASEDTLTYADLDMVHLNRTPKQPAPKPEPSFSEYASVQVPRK
Chain of cynomolgus monkey SIRPα, extracellular domain, Avi-FXa-Fc tag (cynomolgus monkey) (chain, as listed by the source limits assumed): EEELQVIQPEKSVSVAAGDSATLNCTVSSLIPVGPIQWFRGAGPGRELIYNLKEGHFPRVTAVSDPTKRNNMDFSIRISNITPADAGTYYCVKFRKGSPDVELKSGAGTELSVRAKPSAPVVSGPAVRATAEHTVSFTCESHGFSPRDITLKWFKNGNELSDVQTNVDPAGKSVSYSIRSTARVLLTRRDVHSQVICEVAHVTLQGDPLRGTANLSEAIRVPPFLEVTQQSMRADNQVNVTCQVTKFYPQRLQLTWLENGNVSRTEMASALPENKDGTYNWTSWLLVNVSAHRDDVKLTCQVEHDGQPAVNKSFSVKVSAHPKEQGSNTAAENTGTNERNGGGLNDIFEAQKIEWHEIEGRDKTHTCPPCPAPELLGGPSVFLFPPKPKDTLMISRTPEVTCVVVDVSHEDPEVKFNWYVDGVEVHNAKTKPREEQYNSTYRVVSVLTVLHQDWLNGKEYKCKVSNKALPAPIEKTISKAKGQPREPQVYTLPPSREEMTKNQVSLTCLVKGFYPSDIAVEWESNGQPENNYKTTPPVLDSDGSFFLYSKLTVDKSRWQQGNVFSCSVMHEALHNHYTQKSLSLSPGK
Chain of human SIRPα1 extracellular domain 1-370, Avi-FXa-Fc tag (human) (chain, as listed by the source limits assumed): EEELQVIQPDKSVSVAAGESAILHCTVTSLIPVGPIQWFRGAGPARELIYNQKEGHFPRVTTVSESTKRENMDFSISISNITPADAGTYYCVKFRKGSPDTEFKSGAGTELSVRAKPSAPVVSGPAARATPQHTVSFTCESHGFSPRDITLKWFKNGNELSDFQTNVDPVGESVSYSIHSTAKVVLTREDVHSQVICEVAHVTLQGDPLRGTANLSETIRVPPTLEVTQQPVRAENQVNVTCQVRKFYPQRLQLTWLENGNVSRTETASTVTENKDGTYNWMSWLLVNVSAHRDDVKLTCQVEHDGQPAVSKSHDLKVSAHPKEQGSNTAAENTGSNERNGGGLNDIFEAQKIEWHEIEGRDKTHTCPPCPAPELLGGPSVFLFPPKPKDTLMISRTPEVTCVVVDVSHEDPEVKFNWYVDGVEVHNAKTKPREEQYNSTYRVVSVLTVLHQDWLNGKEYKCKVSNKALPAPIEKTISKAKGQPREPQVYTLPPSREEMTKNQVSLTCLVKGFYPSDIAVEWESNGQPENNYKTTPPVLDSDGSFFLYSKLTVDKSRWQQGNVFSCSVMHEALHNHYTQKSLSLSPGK
Chain of human SIRPβ1v2, extracellular domain, Avi-FXa-Fc tag (human) (chain, as listed by the source limits assumed): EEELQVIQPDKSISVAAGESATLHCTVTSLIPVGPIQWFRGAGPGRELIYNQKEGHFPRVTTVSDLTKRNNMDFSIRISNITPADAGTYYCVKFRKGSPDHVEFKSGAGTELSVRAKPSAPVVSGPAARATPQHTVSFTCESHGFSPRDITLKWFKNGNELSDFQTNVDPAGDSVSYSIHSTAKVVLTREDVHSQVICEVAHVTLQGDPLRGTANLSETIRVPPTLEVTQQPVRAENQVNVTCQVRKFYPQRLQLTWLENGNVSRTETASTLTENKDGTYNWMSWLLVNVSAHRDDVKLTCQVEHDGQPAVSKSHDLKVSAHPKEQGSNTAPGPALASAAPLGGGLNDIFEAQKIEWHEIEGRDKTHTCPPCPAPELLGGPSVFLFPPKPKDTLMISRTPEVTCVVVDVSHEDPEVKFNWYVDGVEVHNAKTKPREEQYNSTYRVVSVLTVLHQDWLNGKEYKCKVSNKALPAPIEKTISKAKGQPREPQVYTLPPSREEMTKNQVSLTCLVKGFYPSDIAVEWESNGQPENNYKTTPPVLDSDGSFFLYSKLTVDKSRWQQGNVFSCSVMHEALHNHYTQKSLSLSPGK
Chain of human SIRPβ1v2, AVI-tagged, biotinylated, monomeric form (human) (Q5TFQ8 30-371): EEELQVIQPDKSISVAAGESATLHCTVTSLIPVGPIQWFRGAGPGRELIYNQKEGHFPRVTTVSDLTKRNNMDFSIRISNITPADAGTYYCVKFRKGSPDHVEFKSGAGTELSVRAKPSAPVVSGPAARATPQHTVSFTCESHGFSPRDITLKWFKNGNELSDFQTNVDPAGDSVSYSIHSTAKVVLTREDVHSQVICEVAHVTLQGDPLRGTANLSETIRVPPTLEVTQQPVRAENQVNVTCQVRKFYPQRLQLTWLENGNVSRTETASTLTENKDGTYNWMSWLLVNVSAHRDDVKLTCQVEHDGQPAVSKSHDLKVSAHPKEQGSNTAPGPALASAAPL
Chain of human SIRPβ1v1, extracellular domain, Avi-FXa-Fc tag (human) (chain, as listed by the source limits assumed): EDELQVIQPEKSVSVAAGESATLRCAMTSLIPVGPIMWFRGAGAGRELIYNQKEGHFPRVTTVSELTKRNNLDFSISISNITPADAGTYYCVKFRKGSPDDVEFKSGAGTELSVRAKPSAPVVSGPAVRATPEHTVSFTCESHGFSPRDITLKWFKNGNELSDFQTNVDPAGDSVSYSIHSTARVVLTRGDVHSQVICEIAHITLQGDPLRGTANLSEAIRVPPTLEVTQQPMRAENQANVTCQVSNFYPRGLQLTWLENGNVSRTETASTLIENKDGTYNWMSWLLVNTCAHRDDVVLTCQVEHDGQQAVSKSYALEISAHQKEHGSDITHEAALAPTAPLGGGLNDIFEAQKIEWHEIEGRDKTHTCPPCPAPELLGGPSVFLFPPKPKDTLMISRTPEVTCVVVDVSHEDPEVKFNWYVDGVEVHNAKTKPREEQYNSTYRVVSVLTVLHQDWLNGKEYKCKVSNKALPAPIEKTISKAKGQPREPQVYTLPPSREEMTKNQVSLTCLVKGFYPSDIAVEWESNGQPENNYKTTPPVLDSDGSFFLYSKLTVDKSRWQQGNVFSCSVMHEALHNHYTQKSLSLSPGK
Chain of human SIRPβ1v1, AVI-tagged, biotinylated, monomeric form (human) (O00241 30-371): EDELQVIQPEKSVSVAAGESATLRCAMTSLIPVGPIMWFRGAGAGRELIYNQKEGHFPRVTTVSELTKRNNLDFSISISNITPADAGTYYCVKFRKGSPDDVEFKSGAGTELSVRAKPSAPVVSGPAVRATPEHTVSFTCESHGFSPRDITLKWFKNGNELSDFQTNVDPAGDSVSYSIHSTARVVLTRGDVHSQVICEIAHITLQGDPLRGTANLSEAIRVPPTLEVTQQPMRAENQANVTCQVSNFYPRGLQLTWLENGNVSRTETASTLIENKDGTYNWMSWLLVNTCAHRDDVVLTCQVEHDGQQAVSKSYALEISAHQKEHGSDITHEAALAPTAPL
Chain of human SIRPα1 expressed on cells (human) (P78324 other isoform, or with tags, fused parts or gaps limits assumed): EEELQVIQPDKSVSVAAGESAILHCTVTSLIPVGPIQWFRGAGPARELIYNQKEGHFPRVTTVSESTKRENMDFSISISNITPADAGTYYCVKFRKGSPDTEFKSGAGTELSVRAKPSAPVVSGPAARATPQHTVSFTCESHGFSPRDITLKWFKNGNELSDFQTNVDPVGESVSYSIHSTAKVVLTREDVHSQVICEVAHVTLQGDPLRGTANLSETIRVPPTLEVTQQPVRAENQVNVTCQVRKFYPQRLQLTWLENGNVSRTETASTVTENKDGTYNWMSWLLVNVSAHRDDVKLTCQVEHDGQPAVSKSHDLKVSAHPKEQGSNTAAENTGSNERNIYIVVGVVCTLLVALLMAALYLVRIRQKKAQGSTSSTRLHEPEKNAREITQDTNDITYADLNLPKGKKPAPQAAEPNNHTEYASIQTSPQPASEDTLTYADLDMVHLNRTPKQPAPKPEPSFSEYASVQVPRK

- EC50 [1]: 1.48 µg/mL
- EC50 [2]: 0.05 µg/mL
- EC50 [3]: 0.09 µg/mL
- EC50 [4]: 0.62 µg/mL
- Kd [5]: 0.0631 nM
- Kd [6]: 0.358 nM
- Kd [7]: 1.8 nM
- Kd [8]: 0.0154 nM
- Kd [9]: 0.798 nM
- Kd [10]: 0.0382 nM
- Kd [11]: 0.287 nM
- Kd [12]: 2.66 nM
Substance: SE5A5 (mouse IgG1κ, Biolegend, purified anti-human CD172a/b) (antibody)
